Measured values from patent US5912224.

Molecular target: TGF-β type I receptor of Mv1Lu cells (mink)

myristylated FKBP12
TGFβ induced 3TP-Luc luciferase activity in Mv1Lu cells: 25 fold
